B1: Pistol ribozyme (parent)
chain: GGGUCGUUGUUCCAUAAUCGCGUGGAUAUGGCACGCAAGUUUCUACCGGGCACCGUAAAUGUCCGACUGGAGCCGUUCGGGCGGCUAUAAACAGACCUCAGGCCCGAAGCGUGGCGGCACCUGCCGCCGGUGGUAAAAAAGAUCGGAAGAGCACACGUCU

Variants of: B1
Test: aptazyme ON/OFF ratio, guanine; higher = stronger switching; co-transcriptional cleavage with and without guanine

In order of falling “aptazyme ON/OFF ratio” value:
1. GGGUCGUCAGUCCAUAAUCGCGUGGAUAUGGCACGCAAGUUUCUACCGGGCACCGUAAAUGUCCGACUGGAGCCGUUCGGGCGGCUAUAAACAGACCUCAGGCCCGAAGCGUGGCGGCACCUGCCGCCGGUGGUAAAAAAGAUCGGAAGAGCACACGUCU  1.57
2. GGGUCGUCAGUUUAUAAUCGCGUGGAUAUGGCACGCAAGUUUCUACCGGGCACCGUAAAUGUCCGACUGGAGCCGUUCGGGCGGCUAUAAACAGACCUCAGGCCCGAAGCGUGGCGGCACCUGCCGCCGGUGGUAAAAAAGAUCGGAAGAGCACACGUCU  1.54
3. GGGUCGUCAGUUCAUAAUCGCGUGGAUAUGGCACGCAAGUUUCUACCGGGCACCGUAAAUGUCCGACUGGAGCCGUUCGGGCGGCUAUAAACAGACCUCAGGCCCGAAGCGUGGCGGCACCUGCCGCCGGUGGUAAAAAAGAUCGGAAGAGCACACGUCU  1.36
4. GGGUCGUCAGUAUAUAAUCGCGUGGAUAUGGCACGCAAGUUUCUACCGGGCACCGUAAAUGUCCGACUGGAGCCGUUCGGGCGGCUAUAAACAGACCUCAGGCCCGAAGCGUGGCGGCACCUGCCGCCGGUGGUAAAAAAGAUCGGAAGAGCACACGUCU  1.28
5. GGGUCGUCAGUCAAUAAUCGCGUGGAUAUGGCACGCAAGUUUCUACCGGGCACCGUAAAUGUCCGACUGGAGCCGUUCGGGCGGCUAUAAACAGACCUCAGGCCCGAAGCGUGGCGGCACCUGCCGCCGGUGGUAAAAAAGAUCGGAAGAGCACACGUCU  1.28
6. GGGUCGUCAGUAAAUAAUCGCGUGGAUAUGGCACGCAAGUUUCUACCGGGCACCGUAAAUGUCCGACUGGAGCCGUUCGGGCGGCUAUAAACAGACCUCAGGCCCGAAGCGUGGCGGCACCUGCCGCCGGUGGUAAAAAAGAUCGGAAGAGCACACGUCU  1.27
7. GGGUCGUCAGUCUAUAAUCGCGUGGAUAUGGCACGCAAGUUUCUACCGGGCACCGUAAAUGUCCGACUGGAGCCGUUCGGGCGGCUAUAAACAGACCUCAGGCCCGAAGCGUGGCGGCACCUGCCGCCGGUGGUAAAAAAGAUCGGAAGAGCACACGUCU  1.26
8. GGGUCGUCAGUGUAUAAUCGCGUGGAUAUGGCACGCAAGUUUCUACCGGGCACCGUAAAUGUCCGACUGGAGCCGUUCGGGCGGCUAUAAACAGACCUCAGGCCCGAAGCGUGGCGGCACCUGCCGCCGGUGGUAAAAAAGAUCGGAAGAGCACACGUCU  1.22
9. GGGUCGUCAGUUGAUAAUCGCGUGGAUAUGGCACGCAAGUUUCUACCGGGCACCGUAAAUGUCCGACUGGAGCCGUUCGGGCGGCUAUAAACAGACCUCAGGCCCGAAGCGUGGCGGCACCUGCCGCCGGUGGUAAAAAAGAUCGGAAGAGCACACGUCU  1.2
10. GGGUCGUCAGUUAAUAAUCGCGUGGAUAUGGCACGCAAGUUUCUACCGGGCACCGUAAAUGUCCGACUGGAGCCGUUCGGGCGGCUAUAAACAGACCUCAGGCCCGAAGCGUGGCGGCACCUGCCGCCGGUGGUAAAAAAGAUCGGAAGAGCACACGUCU  1.19
11. GGGUCGUCAGAACAUAAUCGCGUGGAUAUGGCACGCAAGUUUCUACCGGGCACCGUAAAUGUCCGACUGGAGCCGUUCGGGCGGCUAUAAACAGACCUCAGGCCCGAAGCGUGGCGGCACCUGCCGCCGGUGGUAAAAAAGAUCGGAAGAGCACACGUCU  1.19
12. GGGUCGUCAGUACAUAAUCGCGUGGAUAUGGCACGCAAGUUUCUACCGGGCACCGUAAAUGUCCGACUGGAGCCGUUCGGGCGGCUAUAAACAGACCUCAGGCCCGAAGCGUGGCGGCACCUGCCGCCGGUGGUAAAAAAGAUCGGAAGAGCACACGUCU  1.16
13. GGGUCGUCAGUGCAUAAUCGCGUGGAUAUGGCACGCAAGUUUCUACCGGGCACCGUAAAUGUCCGACUGGAGCCGUUCGGGCGGCUAUAAACAGACCUCAGGCCCGAAGCGUGGCGGCACCUGCCGCCGGUGGUAAAAAAGAUCGGAAGAGCACACGUCU  1.15
14. GGGUCGUCAGUGAAUAAUCGCGUGGAUAUGGCACGCAAGUUUCUACCGGGCACCGUAAAUGUCCGACUGGAGCCGUUCGGGCGGCUAUAAACAGACCUCAGGCCCGAAGCGUGGCGGCACCUGCCGCCGGUGGUAAAAAAGAUCGGAAGAGCACACGUCU  1.14
15. GGGUCGUCAGUCGAUAAUCGCGUGGAUAUGGCACGCAAGUUUCUACCGGGCACCGUAAAUGUCCGACUGGAGCCGUUCGGGCGGCUAUAAACAGACCUCAGGCCCGAAGCGUGGCGGCACCUGCCGCCGGUGGUAAAAAAGAUCGGAAGAGCACACGUCU  1.14
16. GGGUCGUCAGUGGAUAAUCGCGUGGAUAUGGCACGCAAGUUUCUACCGGGCACCGUAAAUGUCCGACUGGAGCCGUUCGGGCGGCUAUAAACAGACCUCAGGCCCGAAGCGUGGCGGCACCUGCCGCCGGUGGUAAAAAAGAUCGGAAGAGCACACGUCU  1.11
17. GGGUCGUCAGUAGAUAAUCGCGUGGAUAUGGCACGCAAGUUUCUACCGGGCACCGUAAAUGUCCGACUGGAGCCGUUCGGGCGGCUAUAAACAGACCUCAGGCCCGAAGCGUGGCGGCACCUGCCGCCGGUGGUAAAAAAGAUCGGAAGAGCACACGUCU  1.1
18. GGGUCGUCAGACCAUAAUCGCGUGGAUAUGGCACGCAAGUUUCUACCGGGCACCGUAAAUGUCCGACUGGAGCCGUUCGGGCGGCUAUAAACAGACCUCAGGCCCGAAGCGUGGCGGCACCUGCCGCCGGUGGUAAAAAAGAUCGGAAGAGCACACGUCU  1.02

From the RNAGym collection of RNA variant scans (doi:10.1021/acssynbio.7b00057)
